Key:
[1] = target: the molecule itself; assay: non-reducing SDS-PAGE; purified COMP, 4 μg/lane, 4–12 % SDS-PAGE under non-reducing conditions, Coomassie Brilliant Blue staining; under reducing conditions (5 % β-mercaptoethanol) a monomer band at ~100 kDa
[2] = target: the molecule itself; assay: non-reducing SDS-PAGE with immunoblot; hCOMP (520 nM) incubated with ADAMTS4 WT (12 nM) for 2 h at 37 °C in TNC-B; non-reducing SDS-PAGE, immunoblot with anti-QQS77 neoepitope antibody

Protein | binding result [1] | stoichiometry N [2]
Drosophila melanogaster S2-expressed human COMP (Cartilage Oligomeric Matrix Protein) (natural protein, N-linked glycans (shown by PNGase F), Cartilage Oligomeric Matrix Protein, human; the Drosophila BiP secretion signal is fused to Gly22 of COMP and cleaved off before secretion to give a native N terminus; numbers count on NP_000086.2 (precursor); on non-reducing SDS-PAGE a mixture of monomers to pentamers was seen; also called iCOMP; thrombospondin 5; source: Drosophila melanogaster Schneider 2 (S2) cells, purified from conditioned …) not shown | binds | –
fully cleaved N-terminal domain (NTD) of COMP ending at the QQS77 neoepitope (domain or fragment, human, UniProt P49747-1 21-77, looked up, Cartilage Oligomeric Matrix Protein, human, N-terminal product of the cleavage at the S77-V78 bond; numbers count on NP_000086.2 (precursor); Made by proteolysis of m2; also called fully cleaved NTD pentamer; N-terminal cleavage fragment; source: hCOMP (520 nM, purified from Freestyle 293-F medium) digested with purified ADAMTS4 (12 nM), 2 h, 37 °C) QGQSPLGSDLGPQMLRELQETNAALQDVRELLRQQVREITFLKNTVMECDACGMQQS | – | 5

— paper PMC12342048, “Cleavage of Cartilage Oligomeric Matrix Protein (COMP) by ADAMTS4 generates a neoepitope associated with osteoarthritis and other forms of degenerative joint disease” (Matrix biology : journal of the International Society for …, 2024)
